This note sets out measurements from patent US20190177434A1 (published 2019).

The target of one experiment is T1, Human IgG, Fc fragment (human).
T1 construct: domain: Fc; the ELISA plates were coated with 'antibody antigens', so whole IgG may have stood there; also called human IgG-Fc domain; IgG Fc domain species: human
Put plainly: method not given.

For experiment [1], the target named is T2, Human IgG3 (human, UniProt P01860-1 1-377).
T2 construct: purified IgG of this subclass; also called HuIgG3
Put plainly: SPR, VHH immobilised, IgG as analyte, 1:1 Langmuir. As for the experimental part:
(§1) Binding affinity constants of anti IgG-Fc VHH fragments were determined using surface plasmon resonance analysis (SPR) on a BiaCore 3000. For this purpose, purified VHH fragments were immobilised onto the surface of a CM5 sensor chip and subsequently incubated with different concentrations of purified IgG antibodies in HBS-EP buffer. Binding was allowed for 3 minutes at 30 μl/min followed by a dissociation step of 15 minutes at 30 μl/min. Binding curves were fitted according to a 1:1 Langmuir binding model using Biacore software.

The target of experiment [2] is T3, Human IgG4 (human, UniProt P01861-1 1-327 = IgG part).
T3 construct: purified IgG of this subclass; also called HuIgG4
Put plainly: SPR, VHH immobilised, IgG as analyte, 1:1 Langmuir. Here is the method:
as §1

Experiment [3] concerns the target T4, Human IgG1 (human, UniProt P01857-1 1-330 = IgG part).
T4 construct: purified IgG of this subclass; also called HuIgG1
Put plainly: SPR, VHH immobilised, IgG as analyte, 1:1 Langmuir. As for the experimental part: as §1

Experiment [4] addresses T5, Human IgG2 (human, UniProt P01859-1 1-326 = IgG part).
T5 construct: purified IgG of this subclass; also called HuIgG2
Put plainly: SPR, VHH immobilised, IgG as analyte, 1:1 Langmuir. Here is the method:
as §1

The next experiment has as its target Rat IgG2c (rat, UniProt P20762 1-329). Put plainly: SPR, IgG-Fc-16 immobilised, IgG 50 µg/ml. Here is the method: (§2) Broad binding reactivity of VHH fragment IgG-Fc-16 was determined using surface plasmon resonance analysis (SPR) on a BiaCore 3000. For this purpose, purified VHH fragment IgG-Fc-16 was immobilised onto the surface of a CM5 sensor chip and subsequently incubated with purified IgG antibodies (50 μg/ml) from different species in HBS-EP buffer. Binding was allowed for 1 minute at 5 μl/min followed by a dissociation step of 2.5 minutes at 5 μl/min. Binding signals (Resonance Units) were compared to background signals measured with HBS-EP buffer only. For comparison, the relative reactivity of Protein A and G towards different IgG species is also given.

In experiment [5] the target is T2, Human IgG3. Put plainly: SPR, IgG-Fc-16 immobilised, IgG 50 µg/ml. Here is the method:
as §2

The target in a further experiment is Mouse IgG 1 (mouse, UniProt P01868 1-324 = IgG part). Put plainly: SPR, IgG-Fc-16 immobilised, IgG 50 µg/ml. Here is the method: as §2
Experiment [6] has as its target T3, Human IgG4. Put plainly: SPR, IgG-Fc-16 immobilised, IgG 50 µg/ml. Here is the method:
as §2

For experiment [7], the target named is T4, Human IgG1. Put plainly: SPR, IgG-Fc-16 immobilised, IgG 50 µg/ml. Here is the method:
as §2

Another experiment concerns the target Mouse IgG2a (mouse, UniProt P01863 1-330 = IgG part). Put plainly: SPR, IgG-Fc-16 immobilised, IgG 50 µg/ml. As for the experimental part: as §2
For the next experiment, the target named is Chicken IgG (chicken). Put plainly: SPR, IgG-Fc-16 immobilised, IgG 50 µg/ml. As for the experimental part: as §2
Another experiment deals with T6, Rat IgG1a (rat, UniProt P20759 1-326).
T6 construct: label 'IgG1a' as printed
Put plainly: SPR, IgG-Fc-16 immobilised, IgG 50 µg/ml. Here is the method:
as §2

In another experiment the target is Rat IgG2a (rat, UniProt P20760 1-322). Put plainly: SPR, IgG-Fc-16 immobilised, IgG 50 µg/ml. As for the experimental part: as §2
Another experiment deals with T7, Guinea IgG (guinea pig).
T7 construct: printed 'Guinea IgG'; also called guinea pig IgG
Put plainly: SPR, IgG-Fc-16 immobilised, IgG 50 µg/ml. Here is the method:
as §2

Experiment [8] addresses T5, Human IgG2. Put plainly: SPR, IgG-Fc-16 immobilised, IgG 50 µg/ml. Here is the method: as §2
Another experiment deals with Rat IgG2b (rat, UniProt P20761 1-333). Put plainly: SPR, IgG-Fc-16 immobilised, IgG 50 µg/ml. As for the experimental part: as §2

Bounds are passed on as bounds.

T5 sequence (P01859 other isoform, or with tags, fused parts or gaps): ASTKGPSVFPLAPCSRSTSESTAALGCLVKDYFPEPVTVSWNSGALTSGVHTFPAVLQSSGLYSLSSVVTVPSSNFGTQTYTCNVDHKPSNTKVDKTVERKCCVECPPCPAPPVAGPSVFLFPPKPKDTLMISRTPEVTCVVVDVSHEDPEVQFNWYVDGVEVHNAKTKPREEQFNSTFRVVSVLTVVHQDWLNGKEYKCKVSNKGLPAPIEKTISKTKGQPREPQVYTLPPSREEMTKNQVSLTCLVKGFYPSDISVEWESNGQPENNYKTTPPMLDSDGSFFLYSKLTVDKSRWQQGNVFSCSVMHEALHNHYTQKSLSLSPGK
T3 sequence (P01861 other isoform, or with tags, fused parts or gaps): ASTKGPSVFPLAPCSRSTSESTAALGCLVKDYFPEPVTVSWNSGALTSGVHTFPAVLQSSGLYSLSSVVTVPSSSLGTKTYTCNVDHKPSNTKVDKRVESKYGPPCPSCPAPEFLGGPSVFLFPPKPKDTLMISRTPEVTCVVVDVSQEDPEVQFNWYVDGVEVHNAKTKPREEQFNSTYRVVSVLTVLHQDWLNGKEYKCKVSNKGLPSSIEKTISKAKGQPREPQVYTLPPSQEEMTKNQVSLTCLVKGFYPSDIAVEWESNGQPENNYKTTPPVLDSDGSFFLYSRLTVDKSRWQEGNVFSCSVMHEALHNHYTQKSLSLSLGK
T2 sequence (P01860 other isoform, or with tags, fused parts or gaps): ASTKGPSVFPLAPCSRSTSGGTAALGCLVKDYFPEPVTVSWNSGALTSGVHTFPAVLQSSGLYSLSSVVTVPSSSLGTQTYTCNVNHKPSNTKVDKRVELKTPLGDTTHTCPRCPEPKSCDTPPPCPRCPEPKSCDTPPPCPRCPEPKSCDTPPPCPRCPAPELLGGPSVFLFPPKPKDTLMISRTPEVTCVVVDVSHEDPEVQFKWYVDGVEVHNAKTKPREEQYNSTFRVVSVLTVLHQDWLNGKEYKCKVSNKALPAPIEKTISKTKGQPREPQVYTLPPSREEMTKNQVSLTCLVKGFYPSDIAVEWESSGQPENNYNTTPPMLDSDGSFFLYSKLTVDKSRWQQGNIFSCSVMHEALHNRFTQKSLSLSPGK
T4 sequence (P01857 other isoform, or with tags, fused parts or gaps): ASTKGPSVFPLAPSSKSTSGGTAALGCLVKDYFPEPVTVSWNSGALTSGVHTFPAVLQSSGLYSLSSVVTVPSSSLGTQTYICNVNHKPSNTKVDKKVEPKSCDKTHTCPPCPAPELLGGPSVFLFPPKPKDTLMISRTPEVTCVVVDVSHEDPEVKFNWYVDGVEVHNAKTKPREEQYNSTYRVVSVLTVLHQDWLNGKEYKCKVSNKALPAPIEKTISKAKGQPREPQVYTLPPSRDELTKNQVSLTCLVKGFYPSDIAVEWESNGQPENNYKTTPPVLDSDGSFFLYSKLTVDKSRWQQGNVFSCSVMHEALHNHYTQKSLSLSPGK
Rat IgG2b, sequence (P20761 whole entry): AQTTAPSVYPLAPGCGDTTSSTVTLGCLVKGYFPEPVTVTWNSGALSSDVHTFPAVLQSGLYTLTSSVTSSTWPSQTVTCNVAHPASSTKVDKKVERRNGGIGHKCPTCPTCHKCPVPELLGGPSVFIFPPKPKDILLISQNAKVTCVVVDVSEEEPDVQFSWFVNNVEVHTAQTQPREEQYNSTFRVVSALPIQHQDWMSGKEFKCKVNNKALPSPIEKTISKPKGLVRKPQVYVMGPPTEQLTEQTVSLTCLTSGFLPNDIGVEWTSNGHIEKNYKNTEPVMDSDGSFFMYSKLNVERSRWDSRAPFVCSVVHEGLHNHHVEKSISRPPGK
Rat IgG2a, sequence (P20760 whole entry): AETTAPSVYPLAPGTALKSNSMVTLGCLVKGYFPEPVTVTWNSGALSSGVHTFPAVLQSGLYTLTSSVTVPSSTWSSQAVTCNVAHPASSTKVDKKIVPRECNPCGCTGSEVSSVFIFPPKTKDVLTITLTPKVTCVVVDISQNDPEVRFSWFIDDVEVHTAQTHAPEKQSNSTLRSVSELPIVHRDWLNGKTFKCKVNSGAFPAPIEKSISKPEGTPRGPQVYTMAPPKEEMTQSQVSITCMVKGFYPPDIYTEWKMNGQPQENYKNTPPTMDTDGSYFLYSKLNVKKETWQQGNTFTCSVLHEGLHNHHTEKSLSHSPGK
Mouse IgG2a, sequence (P01863 whole entry): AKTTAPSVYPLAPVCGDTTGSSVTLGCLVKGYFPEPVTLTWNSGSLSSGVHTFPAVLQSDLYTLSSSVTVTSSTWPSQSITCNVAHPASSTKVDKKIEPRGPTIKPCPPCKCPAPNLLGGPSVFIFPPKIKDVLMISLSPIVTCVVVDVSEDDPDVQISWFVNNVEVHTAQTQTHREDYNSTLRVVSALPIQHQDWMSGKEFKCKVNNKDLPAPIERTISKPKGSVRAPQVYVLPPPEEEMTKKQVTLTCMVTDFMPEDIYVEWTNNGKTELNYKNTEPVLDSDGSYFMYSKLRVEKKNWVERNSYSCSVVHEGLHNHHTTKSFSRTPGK
Rat IgG2c, sequence (P20762 whole entry, the tested form may be a part): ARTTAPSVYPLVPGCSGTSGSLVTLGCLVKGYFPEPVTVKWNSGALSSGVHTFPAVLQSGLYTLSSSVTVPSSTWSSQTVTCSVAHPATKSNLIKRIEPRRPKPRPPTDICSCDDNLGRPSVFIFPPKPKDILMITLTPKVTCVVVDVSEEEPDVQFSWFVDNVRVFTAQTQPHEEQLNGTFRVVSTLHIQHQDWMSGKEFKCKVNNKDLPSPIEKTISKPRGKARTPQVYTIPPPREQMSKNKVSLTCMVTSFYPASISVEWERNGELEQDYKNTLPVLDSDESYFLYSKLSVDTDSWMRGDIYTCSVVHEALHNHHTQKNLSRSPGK
T6 sequence (P20759 whole entry): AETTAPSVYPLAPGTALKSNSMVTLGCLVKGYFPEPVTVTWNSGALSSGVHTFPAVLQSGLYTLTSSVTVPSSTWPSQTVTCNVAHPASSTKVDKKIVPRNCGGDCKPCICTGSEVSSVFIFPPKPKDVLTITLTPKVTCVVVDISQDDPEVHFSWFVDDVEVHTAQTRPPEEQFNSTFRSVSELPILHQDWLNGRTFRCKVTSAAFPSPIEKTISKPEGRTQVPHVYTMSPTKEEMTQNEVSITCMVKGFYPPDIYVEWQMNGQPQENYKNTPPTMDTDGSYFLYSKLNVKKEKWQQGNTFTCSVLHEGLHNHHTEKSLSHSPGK

B1: IgG-Fc-10 (VHH)
VHH: QVQLQESGGGLVQAGDSLRISCRASGLTVNDLYMGWFRQAPGKEREFVGRVTPGDNTDYTYYVDSVKGRFTISRDSAKNTVYLQMNSLKLEDTAVYLCAGRRFGSSEWDYWGQGTQVTVSS
Molecule B1 gave a Ka in the experiment with Human IgG, Fc fragment of at least 4e+09 M⁻¹.

B2: IgG-Fc-01 (VHH)
VHH: QVQLQESGGGLVQPGGSLRLSCAASGGTSIRIGSINALAWYRQALGNQRELVAAVTEGGSTNYADFVKGRFTISRDNAQNMMYLQMNSLKPEDTAVYYCNADKVLYSRGGYYSVANDLWGQGTQVTVSS
notes: also called IgG-Fc-1
In the experiment with Human IgG3 [1], B2 came in with a Ka of 2.09e+07 M⁻¹, a Kd of 47.8 nM, a koff of 0.000272 s⁻¹ and an association rate constant (kon) of 5690 M⁻¹ s⁻¹. In the experiment with Human IgG4 [2], this molecule registered a Ka of 3.32e+09 M⁻¹, a Kd of 0.302 nM, a koff of 5.91e-05 s⁻¹ and a kon of 196000 M⁻¹ s⁻¹. Moreover, in the experiment with Human IgG1 [3], the Ka came out at 1.74e+09 M⁻¹, the Kd came out at 0.575 nM, the koff was 0.000208 s⁻¹ and the kon stood at 361000 M⁻¹ s⁻¹. In the experiment with Human IgG2 [4], the Ka was determined as 5.76e+08 M⁻¹, the Kd stood at 1.73 nM, the koff was found to be 0.000212 s⁻¹ and the kon worked out at 122000 M⁻¹ s⁻¹.

B3: IgG-Fc-16 (VHH)
VHH: QVQLQESGGGLVQAGGSLRLSCAASGRAVGNYIIGWFRQAPGKEREFVATTTRDGGSTFYADSVKGRFTISRDNAKNTVNLQMNSLEPEDTAVYYCAAKSWSVPLRPTSADFDSWGQGTQVTVSS
Take B3: the “Binding signal (RU)” value worked out at 2130 RU with Rat IgG2c; 499 RU with Human IgG3 [5]; 1610 RU with Mouse IgG 1; 710 RU with Human IgG4 [6]; 1570 RU with Human IgG1 [7]; 427 RU with Mouse IgG2a. For the same molecule, the “Binding signal (RU)” value with Chicken IgG is -3.1 RU; with Rat IgG1a, 431 RU; with Rat IgG2a, 444 RU; in the experiment with Guinea IgG it was 577 RU; in the experiment with Human IgG2 [8] it was 795 RU; with Rat IgG2b, 512 RU. In addition, the Ka was found to be 4.69e+07 M⁻¹ with Human IgG3 [1], 5.89e+08 M⁻¹ with Human IgG4 [2], 1.47e+08 M⁻¹ in the experiment with Human IgG1 [3] and 6.17e+07 M⁻¹ with Human IgG2 [4]. Further, the Kd was 21.3 nM with Human IgG3 [1], 1.7 nM with Human IgG4 [2], 6.81 nM with Human IgG1 [3] and 16.2 nM with Human IgG2 [4]. Also, the koff in the experiment with Human IgG3 [1] was 0.000849 s⁻¹; with Human IgG4 [2] it was 0.000107 s⁻¹; with Human IgG1 [3], 0.000211 s⁻¹; in the experiment with Human IgG2 [4] it was 0.000355 s⁻¹. For the same molecule, the kon with Human IgG3 [1] was determined as 39800 M⁻¹ s⁻¹; in the experiment with Human IgG4 [2], 62900 M⁻¹ s⁻¹; with Human IgG1 [3], 31000 M⁻¹ s⁻¹; with Human IgG2 [4], 21900 M⁻¹ s⁻¹.
